Where a chain is given by its changes, count along the chain named. Where “and” joins values, the source holds several entries; their conditions need not be identical. Identical values can stand only once.
Tests used:
[1] = biological target: L-TGF-β1 (latent TGF-β1 dimer, R249A, as it stands in L-TGF-β1/GARP) (human); assay: cryo-EM structure; purified L-TGF-β1/GARP or L-TGF-β3/GARP alone, 0.3 mg/ml
[2] = biological target: T1, L-TGF-β3/GARP (purified complex of latent TGF-β3 with the GARP ectodomain) (human, UniProt Q14392 20-627); assay: mass photometry; L-TGF-β3/GARP with αvβ8; TBS with 1 mM CaCl2, 1 mM MgCl2; conditions: both partners purified
T1 chain 1: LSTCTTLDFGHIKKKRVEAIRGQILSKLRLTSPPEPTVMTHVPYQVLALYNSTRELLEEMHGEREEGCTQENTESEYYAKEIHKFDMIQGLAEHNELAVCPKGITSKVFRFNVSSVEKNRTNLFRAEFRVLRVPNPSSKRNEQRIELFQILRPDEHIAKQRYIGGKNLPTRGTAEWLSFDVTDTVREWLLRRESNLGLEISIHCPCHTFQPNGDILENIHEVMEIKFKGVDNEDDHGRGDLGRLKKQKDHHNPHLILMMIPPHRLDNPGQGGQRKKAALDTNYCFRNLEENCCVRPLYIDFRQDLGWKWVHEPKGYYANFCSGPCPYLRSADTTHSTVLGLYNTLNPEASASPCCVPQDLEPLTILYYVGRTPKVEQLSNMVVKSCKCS
T1 chain 2: T1 chain 1 with D240E
T1 chain 3: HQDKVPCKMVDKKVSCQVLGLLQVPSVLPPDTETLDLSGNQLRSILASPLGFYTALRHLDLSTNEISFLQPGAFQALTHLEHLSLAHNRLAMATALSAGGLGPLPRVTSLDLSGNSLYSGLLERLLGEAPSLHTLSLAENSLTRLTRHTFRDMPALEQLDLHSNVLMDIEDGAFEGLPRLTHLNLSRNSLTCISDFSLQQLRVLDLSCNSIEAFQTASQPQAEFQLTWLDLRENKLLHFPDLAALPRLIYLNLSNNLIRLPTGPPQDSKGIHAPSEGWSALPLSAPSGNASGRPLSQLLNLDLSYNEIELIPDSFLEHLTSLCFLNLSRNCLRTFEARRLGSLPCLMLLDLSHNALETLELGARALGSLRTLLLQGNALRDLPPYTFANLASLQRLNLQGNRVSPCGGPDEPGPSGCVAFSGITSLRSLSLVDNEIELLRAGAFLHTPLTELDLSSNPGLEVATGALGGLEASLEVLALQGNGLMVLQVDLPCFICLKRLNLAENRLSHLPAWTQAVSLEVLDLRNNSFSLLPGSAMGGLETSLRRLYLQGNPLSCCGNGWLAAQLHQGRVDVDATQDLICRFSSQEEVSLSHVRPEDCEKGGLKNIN

[3] = biological target: L-TGF-β1/GARP (secreted complex of latent TGF-β1 with the GARP ectodomain) (human) (UniProt Q14392); assay: mass photometry + cryo-EM structure; L-TGF-β1/GARP mixed with recombinant αvβ8 ectodomain at 1:1 molar ratio; mass photometry in TBS with 1 mM CaCl2, 1 mM MgCl2

L-TGF-β1 (latent TGF-β1 dimer, R249A, as it stands in L-TGF-β1/GARP) (natural protein)
stoichiometry N [1]: 2

B1: secreted ectodomain of αvβ8 integrin (receptor)
chain 1: FNLDVDSPAEYSGPEGSYFGFAVDFFVPSASSRMFLLVGAPKANTTQPGIVEGGQVLKCDWSSTRRCQPIEFDATGNRDYAKDDPLEFKSHQWFGASVRSKQDKILACAPLYHWRTEMKQEREPVGTCFLQDGTKTVEYAPCRSQDIDADGQGFCQGGFSIDFTKADRVLLGGPGSFYWQGQLISDQVAEIVSKYDPNVYSIKYNNQLATRTAQAIFDDSYLGYSVAVGDFNGDGIDDFVSGVPRAARTLGMVYIYDGKNMSSLYNFTGEQMAAYFGFSVAATDINGDDYADVFIGAPLFMDRGSDGKLQEVGQVSVSLQRASGDFQTTKLNGFEVFARFGSAIAPLGDLDQDGFNDIAIAAPYGGEDKKGIVYIFNGRSTGLNAVPSQILEGQWAARSMPPSFGYSMKGATDIDKNGYPDLIVGAFGVDRAILYRARPVITVNAGLEVYPSILNQDNKTCSLPGTALKVSCFNVRFCLKADGKGVLPRKLNFQVELLLDKLKQKGAIRRALFLYSRSPSHSKNMTISRGGLMQCEELIAYLRDESEFRDKLTPITIFMEYRLDYRTAADTTGLQPILNQFTPANISRQAHILLDCGEDNVCKPKLEVSVDSDQKKIYIGDDNPLTLIVKAQNQGEGAYEAELIVSIPLQADFIGVVRNNEALARLSCAFKTENQTRQVVCDLGNPMKAGTQLLAGLRFSVHQQSEMDTSVKFDLQIQSSNLFDKVSPVVSHKVDLAVLAAVEIRGVSSPDHVFLPIPNWEHKENPETEEDVGPVVQHIYELRNNGPSSFSKAMLHLQWPYKYNNNTLLYILHYDIDGPMNCTSDMEINPLRIKISSLQTTEKNDTVAGQGERDHLITKRDLALSEGDIHTLGCGVAQCLKIVCQVGRLDRGKSAILYVKSLLWTETFMNKENQNHSYSLKSSASFNVIEFPYKNLPIEDITNSTLVTTNVTWGIQPAPMPV
chain 2: EDNRCASSNAASCARCLALGPECGWCVQEDFISGGSRSERCDIVSNLISKGCSVDSIEYPSVHVIIPTENEINTQVTPGEVSIQLRPGAEANFMLKVHPLKKYPVDLYYLVDVSASMHNNIEKLNSVGNDLSRKMAFFSRDFRLGFGSYVDKTVSPYISIHPERIHNQCSDYNLDCMPPHGYIHVLSLTENITEFEKAVHRQKISGNIDTPEGGFDAMLQAAVCESHIGWRKEAKRLLLVMTDQTSHLALDSKLAGIVVPNDGNCHLKNNVYVKSTTMEHPSLGQLSEKLIDNNINVIFAVQGKQFHWYKDLLPLLPGTIAGEIESKAANLNNLVVEAYQKLISEVKVQVENQVQGIYFNITAICPDGSRKPGMEGCRNVTSNDEVLFNVTVTMKKCDVTGGKNYAIIKPIGFNETAKIHIHRNCSCQCEDNRGPKGKCVDETFLDSKCFQCDENKCHFDEDQFSSESCKSHKDQPVCSGRGVCVCGKCSCHKIKLGKVYGKYCEKDDFSCPYHHGNLCAGHGECEAGRCQCFSGWEGDRCQCPSAAAQHCVNSKGQVCSGRGTCVCGRCECTDPRSIGRFCEHCPTCYTACKENWNCMQCLHPHNLSQAILDQCKTSCALMEQQHYVDQTSECFSSPSYLR
notes: integrin αv, truncated (αvtr pcDM8), secreted ectodomain; integrin β8, truncated (β8tr), secreted ectodomain; also called αvβ8tr; truncated αvβ8 ectodomain; source: ExpiCHO, transfected, purified from supernatant (Protein G crosslinked with antibody 8B8, SEC on Superose 6)
stoichiometry N [2]: 1 and 2
stoichiometry N [3]: 1 and 2

Source: article PMC11531391 (Cell, 2024)
